Common to all, as to details: remark: other sources report otherwise
For assay [1], the target named is recombinant soluble homotrimeric HA of A/Wisconsin/67/05 (H3N2) (Influenza A virus A/Wisconsin/67/2005 (H3N2)). Kind of assay: HA microarray, control mAb.
Assay [2] addresses recombinant soluble homotrimeric HA of A/Vietnam/1203/04 (H5N1) (Influenza A virus A/Vietnam/1203/2004 (H5N1)). Kind of assay: HA microarray, control mAb.
Assay [3] concerns the target recombinant soluble homotrimeric HA of A/Netherlands/219/03 (H7N7) (Influenza A virus A/Netherlands/219/03 (H7N7)). Put plainly: HA microarray, control mAb.
The target in assay [4] is recombinant soluble homotrimeric HA of A/Solomon Islands/3/06 (H1N1) (Influenza A virus A/Solomon Islands/3/2006 (H1N1)). Put plainly: HA microarray, control mAb.
Assay [5] addresses recombinant soluble homotrimeric HA of A/Hong Kong/2108/03 (H9N2) (Influenza A virus A/Hong Kong/2108/2003 (H9N2)). Put plainly: HA microarray, control mAb.
For assay [6], the target named is recombinant soluble homotrimeric HA of A/duck/Yangzhou/02/2005 (H8N4) (Influenza A virus A/duck/Yangzhou/02/2005 (H8N4)). Kind of assay: HA microarray, control mAb.
In assay [7] the target is recombinant soluble homotrimeric HA of A/Indonesia/5/05 (H5N1) (Influenza A virus A/Indonesia/5/2005 (H5N1)). Put plainly: HA microarray, control mAb.
Assay [8] concerns the target recombinant soluble homotrimeric HA of A/Egypt/3300-NAMRU3/08 (H5N1) (Influenza A virus A/Egypt/3300-NAMRU3/2008 (H5N1)). Kind of assay: HA microarray, control mAb.
The target in assay [9] is recombinant soluble homotrimeric HA of A/swine/Ontario/01911-2/99 (H4N6) (Influenza A virus A/Swine/Ontario/01911-2/99 (H4N6)). Put plainly: HA microarray, control mAb.
Assay [10] concerns the target recombinant soluble homotrimeric HA of A/Anhui/1/05 (H5N1) (Influenza A virus A/Anhui/1/2005 (H5N1)). Kind of assay: HA microarray, control mAb.
Assay [11] concerns the target recombinant soluble homotrimeric HA of A/California/4/09 (H1N1) (Influenza A virus A/California/04/2009 (H1N1)). Put plainly: HA microarray, control mAb.
Assay [12] addresses recombinant soluble homotrimeric HA of A/Japan/305/57 (H2N2) (Influenza A virus A/Japan/305/1957 (H2N2)). Put plainly: HA microarray, control mAb.
In assay [13] the target is recombinant soluble homotrimeric HA of A/chicken/Vietnam/NCVD-016/08 (H5N1) (Influenza A virus A/chicken/Vietnam/NCVD-016/2008 (H5N1)). Kind of assay: HA microarray, control mAb.
Assay [14] has as its target recombinant soluble homotrimeric HA, A/Anhui/1/05 (H5N1) (influenza A virus A/Anhui/1/2005 (H5N1)). Kind of assay: microarray, trimeric HA, transfection supernatant.
Assay [15] has as its target recombinant soluble homotrimeric HA, A/duck/Yangzhou/02/2005 (H8N4) (influenza A virus A/duck/Yangzhou/02/2005 (H8N4)). Put plainly: microarray, trimeric HA, transfection supernatant.
The target of assay [16] is recombinant soluble homotrimeric HA, A/Hong Kong/156/97 (H5N1) (influenza A virus A/Hong Kong/156/97 (H5N1)). Kind of assay: microarray, trimeric HA, transfection supernatant.

Our source for the Trimeric HA Binding RLU values is patent publication US20150104459A1.

Values joined by “and” are separate entries in the source; they are usually repeats but may differ in a detail not shown here. Equal entries are not always repeated.

B1: TCN-504 (3251_K17) (antibody, V domains shown)
VH: QVQLQESGPGLVKPSETLSLTCAVSGVSISNIDFYWGWIRQPPGKGLEWIGNIYYTGITFYNPSLSSRVAISIDTSKNQFSLTLTSVTAADTAMYYCARHYGDSEAINDAFDIWGQGTMLTVSS
VL: EIVMTQSPATLSVSPGERATLSCRASQSVGNSLAWYQQRPGQAPRLLIYGASTRATGIPPRFSGSGSGTEFTLTISSLQTEDFAVYYCQQYINWRPLSFGGGTKVEIK
On to B1, for which the Trimeric HA Binding RLU came to 40500 RLU in [1]; 196 RLU in assay [2]; 47200 RLU in assay [3]; 24100 RLU in assay [4]; 454 RLU in [5]; 14100 RLU in assay [6]. Moreover, the Trimeric HA Binding RLU in [7] is 43300 RLU; in assay [8], 44400 RLU; in assay [9] it was 14700 RLU; in [10] it was 26200 RLU; in [11], 3330 RLU; in assay [12], 4090 RLU. For the same molecule, the Trimeric HA Binding RLU in [13] was 38500 RLU; in [14], 30000 RLU and 14100 RLU and 37200 RLU; in assay [15], 19600 RLU and 19900 RLU and 35100 RLU; in assay [16], 26600 RLU.
